Assay results from the supplement of paper PMC10598134.
± gives the standard deviation.

Test: collision cross section of modified peptide (TIMS, N2, iRT-aligned); higher = larger / more extended gas-phase ion
Description: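 1/K0 was aligned run-wise to spiked iRT peptides and converted to CCS in N2 (Mason-Schamp). Values are the mean of 1-3 technical replicates for the most abundant feature at each charge state.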

[1] = charge state: 2, modification: hydroxyisobutyryl
[2] = charge state: 3, modification: hydroxyisobutyryl
[3] = charge state: 2, modification: Citrullination (R)
[4] = charge state: 2, modification: Methyl (R)
[5] = charge state: 2, modification: Nitro (Y)
[6] = charge state: 2, modification: Phospho (Y)
[7] = charge state: 2, modification: Acetyl (K)
[8] = charge state: 2, modification: Biotin
[9] = charge state: 3, modification: Biotin
[10] = charge state: 2, modification: Butyryl
[11] = charge state: 2, modification: Crotonyl
[12] = charge state: 2, modification: Dimethyl (K)
[13] = charge state: 3, modification: Dimethyl (K)
[14] = charge state: 2, modification: Formyl
[15] = charge state: 2, modification: Glutarylation
[16] = charge state: 3, modification: Glutarylation
[17] = charge state: 2, modification: GlyGly (K)
[18] = charge state: 3, modification: GlyGly (K)
[19] = charge state: 2, modification: Malonyl
[20] = charge state: 2, modification: Methyl (K)
[21] = charge state: 3, modification: Methyl (K)
[22] = charge state: 2, modification: Propionyl
[23] = charge state: 2, modification: Succinyl
[24] = charge state: 3, modification: Succinyl
[25] = charge state: 2, modification: Trimethyl (K)
[26] = charge state: 3, modification: Trimethyl (K)
[27] = charge state: 3, modification: Acetyl (K)
[28] = charge state: 3, modification: Butyryl
[29] = charge state: 3, modification: Crotonyl
[30] = charge state: 3, modification: Formyl
[31] = charge state: 3, modification: Malonyl

Work on “AGQKLIDVNHYAK [_AGQK(hydroxyisobutyryl)LIDVNHYAK_]” yielded a collision cross section [1] of 436.67 ± 0.29 Å² and a collision cross section [2] of 483.82 ± 2.8 Å².
“AGRGFSLEELR [_AGR(Citrullination (R))GFSLEELR_]” showed a collision cross section [3] of 372.54 ± 0.24 Å².
AGRGFSLEELR [_AGR(Methyl (R))GFSLEELR_] gave a collision cross section [4] of 379.24 Å² and a collision cross section (charge state: 3, modification: Methyl (R)) of 460.11 ± 2.4 Å².
“AIEINPDSAQPYK [_AIEINPDSAQPY(Nitro (Y))K_]” showed a collision cross section [5] of 401.15 ± 0.18 Å².
Work on “AIEINPDSAQPYK [_AIEINPDSAQPY(Phospho (Y))K_]” yielded a collision cross section [6] of 402.87 ± 0.061 Å².
AIQLNPSYIR [_AIQLNPSY(Nitro (Y))IR_] showed a collision cross section [5] of 380.21 ± 0.17 Å².
In the case of AIQLNPSYIR [_AIQLNPSY(Phospho (Y))IR_], the collision cross section [6] is reported as 384.89 ± 0.65 Å².
Work on “ALASIDSKLNQAK [_ALASIDSK(Acetyl (K))LNQAK_]” yielded a collision cross section [7] of 399.37 ± 2 Å².
For ALASIDSKLNQAK [_ALASIDSK(Biotin)LNQAK_], the collision cross section [8] was 417.14 ± 2.9 Å² and the collision cross section [9] was 481.19 Å².
“ALASIDSKLNQAK [_ALASIDSK(Butyryl)LNQAK_]” showed a collision cross section [10] of 403.96 ± 0.85 Å².
Work on “ALASIDSKLNQAK [_ALASIDSK(Crotonyl)LNQAK_]” yielded a collision cross section [11] of 401.19 ± 0.9 Å².
Work on “ALASIDSKLNQAK [_ALASIDSK(Dimethyl (K))LNQAK_]” yielded a collision cross section [12] of 412.97 ± 1.1 Å² and a collision cross section [13] of 457.79 ± 2.1 Å².
With ALASIDSKLNQAK [_ALASIDSK(Formyl)LNQAK_] the collision cross section [14] was 395.38 ± 0.55 Å².
“ALASIDSKLNQAK [_ALASIDSK(Gluratylation)LNQAK_]” gave a collision cross section [15] of 406.86 ± 0.54 Å² and a collision cross section [16] of 470.57 Å².
Work on “ALASIDSKLNQAK [_ALASIDSK(GlyGly (K))LNQAK_]” yielded a collision cross section [17] of 417.48 ± 0.98 Å² and a collision cross section [18] of 469.2 ± 1.3 Å².
For “ALASIDSKLNQAK [_ALASIDSK(Malonyl)LNQAK_]”, the collision cross section [19] was 399.65 ± 0.028 Å².
Substance “ALASIDSKLNQAK [_ALASIDSK(Methyl (K))LNQAK_]” has a collision cross section [20] of 411.6 ± 0.9 Å² and a collision cross section [21] of 462.35 ± 4.6 Å².
Work on “ALASIDSKLNQAK [_ALASIDSK(Propionyl)LNQAK_]” yielded a collision cross section [22] of 398.32 Å².
In the case of “ALASIDSKLNQAK [_ALASIDSK(Succinyl)LNQAK_]”, the collision cross section [23] is reported as 408.18 ± 0.54 Å² and the collision cross section [24] is reported as 477.06 Å².
Work on “ALASIDSKLNQAK [_ALASIDSK(Trimethyl (K))LNQAK_]” yielded a collision cross section [25] of 417.47 ± 0.6 Å² and a collision cross section [26] of 444.8 ± 1.8 Å².
“ALASIDSKLNQAK [_ALASIDSK(hydroxyisobutyryl)LNQAK_]” showed a collision cross section [1] of 410.87 ± 9.2 Å².
With ALLQAKASGK [_ALLQAK(Acetyl (K))ASGK_] the collision cross section [7] was 343.77 ± 0.2 Å².
In the case of ALLQAKASGK [_ALLQAK(Butyryl)ASGK_], the collision cross section [10] is reported as 352.22 ± 2.3 Å².
Substance ALLQAKASGK [_ALLQAK(Crotonyl)ASGK_] has a collision cross section [11] of 351.6 ± 1.3 Å².
Work on ALLQAKASGK [_ALLQAK(Dimethyl (K))ASGK_] yielded a collision cross section [12] of 351.53 ± 0.51 Å².
In the case of ALLQAKASGK [_ALLQAK(Formyl)ASGK_], the collision cross section [14] is reported as 340.27 ± 0.87 Å².
Work on “ALLQAKASGK [_ALLQAK(Gluratylation)ASGK_]” yielded a collision cross section [15] of 353.63 ± 0.71 Å².
With ALLQAKASGK [_ALLQAK(GlyGly (K))ASGK_] the collision cross section [17] was 355.61 ± 0.57 Å².
ALLQAKASGK [_ALLQAK(Methyl (K))ASGK_] gave a collision cross section [20] of 342.45 ± 0.79 Å² and a collision cross section [21] of 423.28 ± 5 Å².
With ALLQAKASGK [_ALLQAK(Propionyl)ASGK_] the collision cross section [22] was 350.75 ± 0.49 Å².
ALLQAKASGK [_ALLQAK(Succinyl)ASGK_] gave a collision cross section [23] of 349.13 ± 0.82 Å².
“ALLQAKASGK [_ALLQAK(Trimethyl (K))ASGK_]” gave a collision cross section [25] of 354.6 ± 1.6 Å² and a collision cross section [26] of 406.65 Å².
With “ALLQAKASGK [_ALLQAK(hydroxyisobutyryl)ASGK_]” the collision cross section [1] was 353.14 ± 1.3 Å².
With ALYETELADAR [_ALY(Nitro (Y))ETELADAR_] the collision cross section [5] was 387.94 ± 0.55 Å².
With “ALYETELADAR [_ALY(Phospho (Y))ETELADAR_]” the collision cross section [6] was 383.83 ± 0.063 Å².
With “ANAIGRGAK [_ANAIGR(Citrullination (R))GAK_]” the collision cross section [3] was 313.03 ± 0.86 Å².
In the case of ANAIGRGAK [_ANAIGR(Methyl (R))GAK_], the collision cross section [4] is reported as 322.43 ± 1.8 Å².
In the case of “ANEKTESSSAQQVAVSR [_ANEK(Acetyl (K))TESSSAQQVAVSR_]”, the collision cross section [7] is reported as 433.42 ± 1.8 Å² and the collision cross section [27] is reported as 527.9 ± 0.37 Å².
“ANEKTESSSAQQVAVSR [_ANEK(Biotin)TESSSAQQVAVSR_]” showed a collision cross section [8] of 464.95 ± 0.23 Å² and a collision cross section [9] of 569.61 ± 0.95 Å².
Work on “ANEKTESSSAQQVAVSR [_ANEK(Butyryl)TESSSAQQVAVSR_]” yielded a collision cross section [10] of 441.41 ± 1.7 Å² and a collision cross section [28] of 534.65 ± 3.5 Å².
In the case of “ANEKTESSSAQQVAVSR [_ANEK(Crotonyl)TESSSAQQVAVSR_]”, the collision cross section [11] is reported as 431.52 ± 7.9 Å² and the collision cross section [29] is reported as 536.98 ± 2.1 Å².
For “ANEKTESSSAQQVAVSR [_ANEK(Dimethyl (K))TESSSAQQVAVSR_]”, the collision cross section [13] was 490.79 ± 1.6 Å².
“ANEKTESSSAQQVAVSR [_ANEK(Formyl)TESSSAQQVAVSR_]” showed a collision cross section [14] of 431.82 ± 1.4 Å² and a collision cross section [30] of 523.66 ± 4.2 Å².
Substance “ANEKTESSSAQQVAVSR [_ANEK(Gluratylation)TESSSAQQVAVSR_]” has a collision cross section [15] of 449.31 ± 1.1 Å² and a collision cross section [16] of 546.17 ± 2 Å².
“ANEKTESSSAQQVAVSR [_ANEK(GlyGly (K))TESSSAQQVAVSR_]” showed a collision cross section [17] of 467.32 ± 0.84 Å² and a collision cross section [18] of 498.93 ± 1.1 Å².
Substance “ANEKTESSSAQQVAVSR [_ANEK(Malonyl)TESSSAQQVAVSR_]” has a collision cross section [19] of 438.58 ± 1 Å² and a collision cross section [31] of 534.15 ± 1.9 Å².
Work on “ANEKTESSSAQQVAVSR [_ANEK(Methyl (K))TESSSAQQVAVSR_]” yielded a collision cross section [20] of 440.42 Å² and a collision cross section [21] of 486.23 ± 1.8 Å².
With “ANEKTESSSAQQVAVSR [_ANEK(Propionyl)TESSSAQQVAVSR_]” the collision cross section [22] was 439.84 ± 1.6 Å² and the collision cross section (charge state: 3, modification: Propionyl) was 533.7 Å².
With “ANEKTESSSAQQVAVSR [_ANEK(Succinyl)TESSSAQQVAVSR_]” the collision cross section [23] was 443.48 ± 0.35 Å² and the collision cross section [24] was 533.43 ± 0.35 Å².
“ANEKTESSSAQQVAVSR [_ANEK(Trimethyl (K))TESSSAQQVAVSR_]” showed a collision cross section [26] of 495.46 ± 1.6 Å².
“ANEKTESSSAQQVAVSR [_ANEK(hydroxyisobutyryl)TESSSAQQVAVSR_]” showed a collision cross section [1] of 442.41 ± 0.29 Å² and a collision cross section [2] of 538.5 ± 0.04 Å².
Substance “ANLEKAQAELVGTADEATR [_ANLEK(Acetyl (K))AQAELVGTADEATR_]” has a collision cross section [7] of 471.91 ± 3.1 Å² and a collision cross section [27] of 570.31 ± 0.74 Å².
With “ANLEKAQAELVGTADEATR [_ANLEK(Biotin)AQAELVGTADEATR_]” the collision cross section [8] was 492.92 Å².
“ANLEKAQAELVGTADEATR [_ANLEK(Butyryl)AQAELVGTADEATR_]” gave a collision cross section [10] of 479.49 ± 1.1 Å² and a collision cross section [28] of 578.23 ± 2 Å².
For “ANLEKAQAELVGTADEATR [_ANLEK(Crotonyl)AQAELVGTADEATR_]”, the collision cross section [11] was 478.55 ± 1.5 Å² and the collision cross section [29] was 577.75 ± 0.5 Å².
In the case of “ANLEKAQAELVGTADEATR [_ANLEK(Dimethyl (K))AQAELVGTADEATR_]”, the collision cross section [13] is reported as 525.41 ± 0.76 Å².
With “ANLEKAQAELVGTADEATR [_ANLEK(Formyl)AQAELVGTADEATR_]” the collision cross section [14] was 471.04 ± 1.4 Å² and the collision cross section [30] was 566.89 ± 0.82 Å².
In the case of “ANLEKAQAELVGTADEATR [_ANLEK(Gluratylation)AQAELVGTADEATR_]”, the collision cross section [15] is reported as 478.84 ± 1.4 Å² and the collision cross section [16] is reported as 584.83 ± 0.77 Å².
“ANLEKAQAELVGTADEATR [_ANLEK(GlyGly (K))AQAELVGTADEATR_]” gave a collision cross section [17] of 487.2 ± 1.5 Å² and a collision cross section [18] of 513.9 ± 1.3 Å².
With “ANLEKAQAELVGTADEATR [_ANLEK(Malonyl)AQAELVGTADEATR_]” the collision cross section [19] was 476.69 ± 0.96 Å² and the collision cross section [31] was 576.12 ± 0.95 Å².
Substance “ANLEKAQAELVGTADEATR [_ANLEK(Methyl (K))AQAELVGTADEATR_]” has a collision cross section [20] of 471.05 Å² and a collision cross section [21] of 523.1 ± 0.87 Å².
Substance “ANLEKAQAELVGTADEATR [_ANLEK(Succinyl)AQAELVGTADEATR_]” has a collision cross section [23] of 479.08 ± 0.78 Å² and a collision cross section [24] of 580.29 ± 0.37 Å².
“ANLEKAQAELVGTADEATR [_ANLEK(Trimethyl (K))AQAELVGTADEATR_]” showed a collision cross section [26] of 528.43 ± 0.88 Å².
“ANLEKAQAELVGTADEATR [_ANLEK(hydroxyisobutyryl)AQAELVGTADEATR_]” showed a collision cross section [1] of 473.77 ± 6.8 Å² and a collision cross section [2] of 579.16 ± 1.2 Å².
For APEYLHR [_APEY(Nitro (Y))LHR_], the collision cross section [5] was 321.02 ± 1.2 Å².
Work on APEYLHR [_APEY(Phospho (Y))LHR_] yielded a collision cross section [6] of 334.14 ± 1.5 Å².
Work on APIISGVTK [_APIIS(HexNAc (ST))GVTK_] yielded a collision cross section (charge state: 2, modification: HexNAc (ST)) of 340.53 ± 0.64 Å².
